Data on 1 molecule can be found in publication PMC4399498 (Nature communications, 2014).

One series deals with T1, KdpE (Escherichia coli, UniProt P21866 1-225).
T1 sequence: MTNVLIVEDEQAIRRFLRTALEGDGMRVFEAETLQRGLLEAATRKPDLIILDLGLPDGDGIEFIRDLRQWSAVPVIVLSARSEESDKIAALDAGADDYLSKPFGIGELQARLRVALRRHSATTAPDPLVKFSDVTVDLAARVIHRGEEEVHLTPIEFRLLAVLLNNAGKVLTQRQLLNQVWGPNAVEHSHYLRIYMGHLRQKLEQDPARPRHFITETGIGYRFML
Put plainly: fluorescence anisotropy. On the technique in general: Polarisation of emitted light reports the rotation of a fluorescent probe.

For another series, the target named is T2, KdpE-E216A (Escherichia coli, UniProt P21866 1-225, E216A).
T2 sequence: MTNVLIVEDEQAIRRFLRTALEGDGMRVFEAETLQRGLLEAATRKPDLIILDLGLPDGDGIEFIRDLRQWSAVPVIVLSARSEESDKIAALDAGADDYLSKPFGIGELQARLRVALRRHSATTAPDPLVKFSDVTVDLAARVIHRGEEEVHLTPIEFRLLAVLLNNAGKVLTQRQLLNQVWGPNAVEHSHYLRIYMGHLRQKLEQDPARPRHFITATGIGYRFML
Kind of series: fluorescence anisotropy.

B1: 24-bp KdpE site DNA, TAMRA (anisotropy) (dsDNA)
DNA 1: CATTTTTATACTTTTTTTACACCC
DNA 2: GGGTGTAAAAAAAGTATAAAAATG
For orientation: Kd means the equilibrium constant for the complex coming apart. Low values mean tighter binding, high ones weaker binding. On to B1, for which the dissociation constant (Kd) with KdpE was found to be 30 ± 4 nM; in the series with KdpE-E216A, 3.5 ± 0.5 nM.
